Source: patent publication US20200317768A1 (published 2020)

T1: cynomolgus monkey FcγRIIa3 extracellular domain with C-terminal His-tag (cynomolgus monkey)
T1 construct: Expressed in FreeStyle 293 cells and purified; also called cyno FcγRIIa3; cynoFcgRIIa3; not shown: C-terminal His-tag
T1 chain: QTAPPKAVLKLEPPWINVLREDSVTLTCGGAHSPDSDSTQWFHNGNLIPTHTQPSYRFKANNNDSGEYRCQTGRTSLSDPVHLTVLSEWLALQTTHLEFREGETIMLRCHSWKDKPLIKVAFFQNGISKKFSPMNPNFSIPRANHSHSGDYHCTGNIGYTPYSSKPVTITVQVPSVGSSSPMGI

T2: cynomolgus monkey FcγRIIb extracellular domain with C-terminal His-tag (cynomolgus monkey)
T2 construct: Expressed in FreeStyle 293 cells and purified; also called cyno FcγRIIb; cynoFcγRIIb; not shown: C-terminal His-tag
T2 chain: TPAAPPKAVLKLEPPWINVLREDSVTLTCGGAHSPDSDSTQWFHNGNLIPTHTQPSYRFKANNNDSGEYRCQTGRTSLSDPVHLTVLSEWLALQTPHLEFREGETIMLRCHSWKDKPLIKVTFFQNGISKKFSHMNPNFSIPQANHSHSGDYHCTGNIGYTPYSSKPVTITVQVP

T3: human FcγRIIb extracellular domain with C-terminal His-tag (human, UniProt P31994 43-217)
T3 construct: Expressed in FreeStyle 293 cells and purified; also called humanFcgRIIb; not shown: C-terminal His-tag
T3 sequence: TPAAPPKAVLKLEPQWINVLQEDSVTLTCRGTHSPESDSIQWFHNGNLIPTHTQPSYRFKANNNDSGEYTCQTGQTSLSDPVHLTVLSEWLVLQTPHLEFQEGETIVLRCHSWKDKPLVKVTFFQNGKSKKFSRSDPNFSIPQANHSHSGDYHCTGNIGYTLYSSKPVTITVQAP


Key:
Test in all cases: SPR (Biacore); KD of SG1 divided by KD of the variant for this FcgR;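 further: relative to parent M103205H795-SG1 carrying the SG1 human heavy chain constant region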
[1] = molecular target: T1, cynomolgus monkey FcγRIIa3 …
Description: (§1) The kinetic analysis of interactions between these antibodies and FcγR was carried out using BIACORE® T200 or BIACORE® 4000 (GE Healthcare). HBS-EP+ (GE Healthcare) was used as the running buffer, and the measurement temperature was set to 25° C. A chip produced by immobilizing Protein A. Protein A/G or mouse anti-human IgG kappa light chain (BD Biosciences) onto a Series S Sensor Chip CM4 or CM5 (GE Healthcare) by the amine-coupling method was used. […] After the measurement, the antibody captured on the chip was washed off by allowing reaction with 10 mM glycine-HCl, pH1.5 and 25 mM NaOH so that the chip was regenerated and used repeatedly. The sensorgrams obtained as measurement results were analyzed by the 1:1 Langmuir binding model using the BIACORE® Evaluation Software to calculate the binding rate constant ka (L/mol/s) and dissociation rate constant kd (l/s), and the dissociation constant KD (mol/L) was calculated from these values. […] Regarding such interactions, KD values were calculated using the following 1:1 binding model described in BIACORE® T100 Software Handbook BR1006-48 Edition AE.
(§2) The resultant variants were expressed using M103202L889-SK1 as light chain and their affinity to human and cynoFcγRs were evaluated (Table 20).

[2] = molecular target: T2, cynomolgus monkey FcγRIIb extracellular …
Description: as §1, §2

[3] = molecular target: T3, human FcγRIIb extracellular domain with …
Description: as §1, §2

[4] = molecular target: T4, human FcγRIIIaV extracellular domain with C-terminal His-tag (human, UniProt P08637 17-208)
T4 construct: Expressed in FreeStyle 293 cells and purified; also called FcgRIIIaV; not shown: C-terminal His-tag
Description: as §1, §2

T4 sequence (P08637 17-208 F176V): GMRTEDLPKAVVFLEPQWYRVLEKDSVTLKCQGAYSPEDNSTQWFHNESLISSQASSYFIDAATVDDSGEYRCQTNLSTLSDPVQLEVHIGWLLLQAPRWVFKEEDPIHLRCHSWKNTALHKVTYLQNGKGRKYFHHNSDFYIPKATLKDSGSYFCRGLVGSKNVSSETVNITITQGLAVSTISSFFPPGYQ

Binder | KD fold (SG1 = 1) [1] [fold] | KD fold (SG1 = 1) [2] [fold] | KD fold (SG1 = 1) [3] [fold] | KD fold (SG1 = 1) [4] [fold]
MS_M103205H795-SG1/M103202L889-SK1 (antibody, human IgG1, kappa, Anti-latent myostatin IgG; also called MS1032LO06-SG1) heavy: not shown light: DIVMTQSPATLSLSPGERATLSCTSSQSVYHANWLSWFQQKPGQPPKLLIYWASTLAYGVPSRFSGSGSGTDFTLTISSLQPEDAATYYCAGGYGGGRYAFGQGTKVEIKRTVAAPSVFIFPPSDEQLKSGTASVVCLLNNFYPREAKVQWKVDNALQSGNSQESVTEQDSKDSTYSLSSTLTLSKADYEKHKVYACEVTHQGLSSPVTKSFNRGEC | 1 | 1 | 1 | 1
M103205H795-MY168 / M103202L889-SK1 (antibody, human IgG1, kappa, Position 396 variant derived from MY052, expressed with M103202L889-SK1 as light chain) heavy: QVTLKESGPVLVKPTETLTLTCTVSGIDLSHDDISWVRQAPGKGLEWVGIISYAGSTYYASWAKGRLTISKDTSKNQVVLTMTNMDPVDTATYYCARGVPAYSHGGDLWGQGTLVTVSSASTKGPSVFPLAPSSKSTSGGTAALGCLVKDYFPEPVTVSWNSGALTSGVHTFPAVLQSSGLYSLSSVVTVPSSSLGTQTYICNVNHKPSNTKVDKKVEPKSCDKTHTCPPCPAPELLNGPSVFLFPPKPKDTLMISRTPEVTCVVVDVSEEDPEVKFNWYVDGVEVHNAKTKPREEQYNSTYRVVSVLTVLHQDWLNGKEYKCKVSNKALPAPIEKTISKAKGQPREPQVYTLPPSREEMTKNQVSLTCLVKGFYPSDIAVEWESNGQPENNYKTTPAVLDSDGSFFLYSKLTVDKSRWQQGNVFSCSVMHEALHNHYTQKSLSLSP light: DIVMTQSPATLSLSPGERATLSCTSSQSVYHANWLSWFQQKPGQPPKLLIYWASTLAYGVPSRFSGSGSGTDFTLTISSLQPEDAATYYCAGGYGGGRYAFGQGTKVEIKRTVAAPSVFIFPPSDEQLKSGTASVVCLLNNFYPREAKVQWKVDNALQSGNSQESVTEQDSKDSTYSLSSTLTLSKADYEKHKVYACEVTHQGLSSPVTKSFNRGEC | 1.7 | 1.5 | 2.7 | 0.1
M103205H795-MY052 / M103202L889-SK1 (antibody, human IgG1, kappa, Fc variant of M103205H795-SG1, expressed with M103202L889-SK1 as light chain; parent of the position 396 variants) heavy: QVTLKESGPVLVKPTETLTLTCTVSGIDLSHDDISWVRQAPGKGLEWVGIISYAGSTYYASWAKGRLTISKDTSKNQVVLTMTNMDPVDTATYYCARGVPAYSHGGDLWGQGTLVTVSSASTKGPSVFPLAPSSKSTSGGTAALGCLVKDYFPEPVTVSWNSGALTSGVHTFPAVLQSSGLYSLSSVVTVPSSSLGTQTYICNVNHKPSNTKVDKKVEPKSCDKTHTCPPCPAPELLNGPSVFLFPPKPKDTLMISRTPEVTCVVVDVSEEDPEVKFNWYVDGVEVHNAKTKPREEQYNSTYRVVSVLTVLHQDWLNGKEYKCKVSNKALPAPIEKTISKAKGQPREPQVYTLPPSREEMTKNQVSLTCLVKGFYPSDIAVEWESNGQPENNYKTTPMVLDSDGSFFLYSKLTVDKSRWQQGNVFSCSVMHEALHNHYTQKSLSLSP light: DIVMTQSPATLSLSPGERATLSCTSSQSVYHANWLSWFQQKPGQPPKLLIYWASTLAYGVPSRFSGSGSGTDFTLTISSLQPEDAATYYCAGGYGGGRYAFGQGTKVEIKRTVAAPSVFIFPPSDEQLKSGTASVVCLLNNFYPREAKVQWKVDNALQSGNSQESVTEQDSKDSTYSLSSTLTLSKADYEKHKVYACEVTHQGLSSPVTKSFNRGEC | 4.4 | 3.9 | 6.4 | 0.54

Now from value to binder:

KD fold (SG1 = 1) [1] [fold] | KD fold (SG1 = 1) [2] [fold] | KD fold (SG1 = 1) [3] [fold] | KD fold (SG1 = 1) [4] [fold] | Binder
1.8 | 1.8 | 3.8 | 0.14 | M103205H795-MY171 / M103202L889-SK1 (antibody, human IgG1, kappa, Position 396 variant derived from MY052, expressed with M103202L889-SK1 as light chain) heavy: QVTLKESGPVLVKPTETLTLTCTVSGIDLSHDDISWVRQAPGKGLEWVGIISYAGSTYYASWAKGRLTISKDTSKNQVVLTMTNMDPVDTATYYCARGVPAYSHGGDLWGQGTLVTVSSASTKGPSVFPLAPSSKSTSGGTAALGCLVKDYFPEPVTVSWNSGALTSGVHTFPAVLQSSGLYSLSSVVTVPSSSLGTQTYICNVNHKPSNTKVDKKVEPKSCDKTHTCPPCPAPELLNGPSVFLFPPKPKDTLMISRTPEVTCVVVDVSEEDPEVKFNWYVDGVEVHNAKTKPREEQYNSTYRVVSVLTVLHQDWLNGKEYKCKVSNKALPAPIEKTISKAKGQPREPQVYTLPPSREEMTKNQVSLTCLVKGFYPSDIAVEWESNGQPENNYKTTPFVLDSDGSFFLYSKLTVDKSRWQQGNVFSCSVMHEALHNHYTQKSLSLSP light: DIVMTQSPATLSLSPGERATLSCTSSQSVYHANWLSWFQQKPGQPPKLLIYWASTLAYGVPSRFSGSGSGTDFTLTISSLQPEDAATYYCAGGYGGGRYAFGQGTKVEIKRTVAAPSVFIFPPSDEQLKSGTASVVCLLNNFYPREAKVQWKVDNALQSGNSQESVTEQDSKDSTYSLSSTLTLSKADYEKHKVYACEVTHQGLSSPVTKSFNRGEC
1.4 | 1.5 | 2.9 | 0.13 | M103205H795-MY170 / M103202L889-SK1 (antibody, human IgG1, kappa, Position 396 variant derived from MY052, expressed with M103202L889-SK1 as light chain) heavy: QVTLKESGPVLVKPTETLTLTCTVSGIDLSHDDISWVRQAPGKGLEWVGIISYAGSTYYASWAKGRLTISKDTSKNQVVLTMTNMDPVDTATYYCARGVPAYSHGGDLWGQGTLVTVSSASTKGPSVFPLAPSSKSTSGGTAALGCLVKDYFPEPVTVSWNSGALTSGVHTFPAVLQSSGLYSLSSVVTVPSSSLGTQTYICNVNHKPSNTKVDKKVEPKSCDKTHTCPPCPAPELLNGPSVFLFPPKPKDTLMISRTPEVTCVVVDVSEEDPEVKFNWYVDGVEVHNAKTKPREEQYNSTYRVVSVLTVLHQDWLNGKEYKCKVSNKALPAPIEKTISKAKGQPREPQVYTLPPSREEMTKNQVSLTCLVKGFYPSDIAVEWESNGQPENNYKTTPEVLDSDGSFFLYSKLTVDKSRWQQGNVFSCSVMHEALHNHYTQKSLSLSP light: DIVMTQSPATLSLSPGERATLSCTSSQSVYHANWLSWFQQKPGQPPKLLIYWASTLAYGVPSRFSGSGSGTDFTLTISSLQPEDAATYYCAGGYGGGRYAFGQGTKVEIKRTVAAPSVFIFPPSDEQLKSGTASVVCLLNNFYPREAKVQWKVDNALQSGNSQESVTEQDSKDSTYSLSSTLTLSKADYEKHKVYACEVTHQGLSSPVTKSFNRGEC
1.7 | 1.8 | 3.5 | 0.13 | M103205H795-MY169 / M103202L889-SK1 (antibody, human IgG1, kappa, Position 396 variant derived from MY052, expressed with M103202L889-SK1 as light chain) heavy: QVTLKESGPVLVKPTETLTLTCTVSGIDLSHDDISWVRQAPGKGLEWVGIISYAGSTYYASWAKGRLTISKDTSKNQVVLTMTNMDPVDTATYYCARGVPAYSHGGDLWGQGTLVTVSSASTKGPSVFPLAPSSKSTSGGTAALGCLVKDYFPEPVTVSWNSGALTSGVHTFPAVLQSSGLYSLSSVVTVPSSSLGTQTYICNVNHKPSNTKVDKKVEPKSCDKTHTCPPCPAPELLNGPSVFLFPPKPKDTLMISRTPEVTCVVVDVSEEDPEVKFNWYVDGVEVHNAKTKPREEQYNSTYRVVSVLTVLHQDWLNGKEYKCKVSNKALPAPIEKTISKAKGQPREPQVYTLPPSREEMTKNQVSLTCLVKGFYPSDIAVEWESNGQPENNYKTTPDVLDSDGSFFLYSKLTVDKSRWQQGNVFSCSVMHEALHNHYTQKSLSLSP light: DIVMTQSPATLSLSPGERATLSCTSSQSVYHANWLSWFQQKPGQPPKLLIYWASTLAYGVPSRFSGSGSGTDFTLTISSLQPEDAATYYCAGGYGGGRYAFGQGTKVEIKRTVAAPSVFIFPPSDEQLKSGTASVVCLLNNFYPREAKVQWKVDNALQSGNSQESVTEQDSKDSTYSLSSTLTLSKADYEKHKVYACEVTHQGLSSPVTKSFNRGEC
